Publication PMC10194908 (PLOS ONE, 2023)

Assays:
[1] = target: T1, Recombinant NS1 from DENV-4-Dominica/814669/1981 (dengue virus serotype 4 …, UniProt P09866); test: BLI; details: both partners purified
T1 construct: also called DENV-4 NS1

[2] = target: T2, Recombinant NS1 from DENV-3-Sri Lanka D3/H/IMTSSA-SRI/2000/1266 (dengue virus serotype 3 (Sri Lanka …, UniProt Q6YMS4)); test: immunoblot; details: both partners purified
T2 construct: also called DENV-3 NS1

[3] = target: NS1 secreted from Vero cells infected with DENV-2-D2Y98P (Dengue virus type 2, strain D2Y98P …, UniProt F8TRW4, strain); test: ELISA; details: one partner purified
[4] = target: T2, Recombinant NS1 from DENV-3-Sri Lanka …; test: ELISA; details: both partners purified
[5] = target: NS1 secreted from Vero cells infected with DENV-4-TVP360 (Dengue virus type 4, strain TVP360 …, UniProt D2KQW6, strain); test: ELISA; details: one partner purified
[6] = target: NS1 secreted from Vero cells infected with DENV-2-TSV01 (Dengue virus type 2, strain TSV01 …, UniProt Q91H74, strain); test: ELISA; details: one partner purified
[7] = target: NS1 secreted from Vero cells infected with DENV-3-VN32/96 (Dengue virus 3, strain VN32/96 (paper: …, strain)); test: ELISA; details: one partner purified
[8] = target: NS1 secreted from Vero cells infected with DENV-4-2641Y08 (Dengue virus type 4, strain 2641Y08 …, UniProt F8TEL4, strain); test: ELISA; details: one partner purified
[9] = target: NS1 secreted from Vero cells infected with DENV-3-CHD94-089 (Dengue virus 3, strain CHD94-089 …, strain); test: ELISA; details: one partner purified
[10] = target: T1, Recombinant NS1 from …; test: immunoblot; details: both partners purified
Target sequence in this assay (P09866 775-1126): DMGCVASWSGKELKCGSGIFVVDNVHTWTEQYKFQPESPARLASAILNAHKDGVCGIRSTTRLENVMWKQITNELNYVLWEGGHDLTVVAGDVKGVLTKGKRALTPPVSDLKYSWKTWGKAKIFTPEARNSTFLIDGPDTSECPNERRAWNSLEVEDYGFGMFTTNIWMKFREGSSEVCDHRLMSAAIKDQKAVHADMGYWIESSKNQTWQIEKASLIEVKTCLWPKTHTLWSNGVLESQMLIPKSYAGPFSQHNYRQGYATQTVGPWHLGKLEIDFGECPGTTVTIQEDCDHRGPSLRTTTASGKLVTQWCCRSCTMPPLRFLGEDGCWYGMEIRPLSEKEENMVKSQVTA

Measured: binding result

T2 sequence (Q6YMS4 774-1125): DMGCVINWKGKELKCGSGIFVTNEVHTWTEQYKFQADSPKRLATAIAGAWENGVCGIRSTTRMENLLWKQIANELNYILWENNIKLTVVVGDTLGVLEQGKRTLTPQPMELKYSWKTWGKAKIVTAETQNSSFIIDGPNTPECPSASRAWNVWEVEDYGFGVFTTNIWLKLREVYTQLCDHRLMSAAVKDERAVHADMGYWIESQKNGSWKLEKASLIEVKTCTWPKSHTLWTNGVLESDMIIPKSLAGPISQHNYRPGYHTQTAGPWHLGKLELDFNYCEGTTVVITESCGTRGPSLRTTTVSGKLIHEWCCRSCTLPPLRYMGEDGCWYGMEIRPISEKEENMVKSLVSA

B1: A2 (antibody, V domains shown)
VH: QVQLQESGGGVVQPGRSLRLFCAASGFTFSAFSTYAIHWVRQAPGKGLEWVAVISYDANNKYYADSVKGRFTISRDNFKSTLFLQMNSLRAEDTAVYYCARDRSDSGYDSYYYYYGMDVWGQGTTVTVSS
VL: QSVVTQPPSVSAAPGQKVTISCSGSSSNIGRNYVSWYQHLPGTAPKLLIYDNNKRRSGIPDRFSGSKSDTTATLGITGLQTVDEADYYCGSWDNSLSAYVFGTGTKVTV
notes: also called A2-HRP
binds: [1] | [2]

B2: D8 (antibody, V domains shown)
VH: QVQLQESGPGLVKPSETLPLTCTVSGGSISNNGFYWGWIRQPPGKGLEWIGNIYYRGSTYYNPSLNSRVTISVDTSKNQFSLQLNSVTAADTAVYYCARLGIQLWFAIDYWGQGTLVTVSS
VL: SVLTQPPAVSVALGQTVRITCQGDSLRSSYASWYQQKPGQAPVLIFYAKNNRPSGIPDRFSGSSSGNTASLTITGAQAEDEADYYCYSRDSSGNLWVFGGGTKLTVL
notes: also called D8-HRP; HRP-D8
binds: [3] | [4] | [5] | [6] | [7] | [8] | [9]

B3: D6 (antibody, V domains shown)
VH: EVQLVQSGGGLVQPGRSLRLSCAASGFTFQDYAMHWVRQAPGKGLEWVSGIGRDSGTIDYADSVKGRFTISRDNAKNSLYLQMNSLRAEDTALYYCAKISNGYRPDNWGQGTLVTVSS
VL: VLTQPPSVSVSPGQTARITCSGDVLAKRYARWFQQKPGQAPVVVIYKDSERPSGIPERLSGSSSGTTVTLTISGAQVEDEADYYCYCAADNNVVFGGGTKLTVL
notes: also called D6-HRP; HRP-D6
binds: [10]
